Measurements reported in paper PMC4585563, “Small angle X-ray scattering studies of CTNNBL1 dimerization and CTNNBL1/CDC5L complex” (Scientific Reports, 2015).

T1: CTNNBL1 (residues 77-563), wild type (human, UniProt Q8WYA6 77-563)
T1 construct: human CTNNBL1, residues 77-563, amplified from a human cDNA library; Dimer by SAXS at 0-200 mM NaCl and by SEC at 150 mM NaCl; monomer at 300-400 mM NaCl; also called native CTNNBL1; wild-type CTNNBL1; source: E. coli BL21(DE3)-T1R, purified (Ni-NTA, TEV protease, Ni-NTA, Superdex200); not shown: 6xHis, N-terminal, cleaved; VHb (bacterial hemoglobin), N-terminal, cleaved
T1 sequence (looked up): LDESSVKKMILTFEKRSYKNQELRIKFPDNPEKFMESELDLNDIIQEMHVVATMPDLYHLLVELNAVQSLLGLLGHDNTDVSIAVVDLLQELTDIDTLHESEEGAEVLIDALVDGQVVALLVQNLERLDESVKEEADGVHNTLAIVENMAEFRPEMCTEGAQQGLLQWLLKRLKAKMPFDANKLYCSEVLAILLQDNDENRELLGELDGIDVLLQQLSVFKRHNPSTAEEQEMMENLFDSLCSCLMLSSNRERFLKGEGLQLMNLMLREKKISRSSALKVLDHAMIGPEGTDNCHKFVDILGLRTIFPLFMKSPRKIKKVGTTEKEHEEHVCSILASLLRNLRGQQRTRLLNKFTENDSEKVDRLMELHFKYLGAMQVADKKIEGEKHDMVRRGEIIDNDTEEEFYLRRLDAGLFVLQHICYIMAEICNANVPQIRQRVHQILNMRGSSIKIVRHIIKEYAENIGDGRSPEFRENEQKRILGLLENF

B1: CDC5L^141-235 (domain or fragment, human, UniProt Q99459 141-235, looked up)
chain: PIDMDEDELEMLSEARARLANTQGKKAKRKAREKQLEEARRLAALQKRRELRAAGIEIQKKRKRKRGVDYNAEIPFEKKPALGFYDTSEENYQAL
notes: CDC5L of the human hPrp19/CDC5L complex, residues 141-235; holds NLS3 (residues 200-206: KKRKRKR); cloned into pPosKJ; pPosKJ adds 6xHis and VHb, both removed only by TEV protease; the His-tagged proteins were made without TEV, so VHb should still be on the chain in the pull-down; also called 6xHis-tagged CDC5L 141-235; source: E. coli, purified as CTNNBL1 with 300 mM NaCl in the buffers, without …
B2: CTNNBL1^E278A (domain or fragment, human, UniProt Q8WYA6 77-563, looked up)
chain: LDESSVKKMILTFEKRSYKNQELRIKFPDNPEKFMESELDLNDIIQEMHVVATMPDLYHLLVELNAVQSLLGLLGHDNTDVSIAVVDLLQELTDIDTLHESEEGAEVLIDALVDGQVVALLVQNLERLDESVKEEADGVHNTLAIVENMAEFRPEMCTEGAQQGLLQWLLKRLKAKMPFDANKLYCSEVLAILLQDNDENRALLGELDGIDVLLQQLSVFKRHNPSTAEEQEMMENLFDSLCSCLMLSSNRERFLKGEGLQLMNLMLREKKISRSSALKVLDHAMIGPEGTDNCHKFVDILGLRTIFPLFMKSPRKIKKVGTTEKEHEEHVCSILASLLRNLRGQQRTRLLNKFTENDSEKVDRLMELHFKYLGAMQVADKKIEGEKHDMVRRGEIIDNDTEEEFYLRRLDAGLFVLQHICYIMAEICNANVPQIRQRVHQILNMRGSSIKIVRHIIKEYAENIGDGRSPEFRENEQKRILGLLENF
notes: human CTNNBL1, residues 77-563, point mutant made by site-directed mutagenesis; source: E. coli, purified as wild-type CTNNBL1; not shown: 6xHis, N-terminal, cleaved; VHb (bacterial hemoglobin), N-terminal, cleaved
B3: CTNNBL1^L87R (domain or fragment, human, UniProt Q8WYA6 77-563, looked up)
chain: LDESSVKKMIRTFEKRSYKNQELRIKFPDNPEKFMESELDLNDIIQEMHVVATMPDLYHLLVELNAVQSLLGLLGHDNTDVSIAVVDLLQELTDIDTLHESEEGAEVLIDALVDGQVVALLVQNLERLDESVKEEADGVHNTLAIVENMAEFRPEMCTEGAQQGLLQWLLKRLKAKMPFDANKLYCSEVLAILLQDNDENRELLGELDGIDVLLQQLSVFKRHNPSTAEEQEMMENLFDSLCSCLMLSSNRERFLKGEGLQLMNLMLREKKISRSSALKVLDHAMIGPEGTDNCHKFVDILGLRTIFPLFMKSPRKIKKVGTTEKEHEEHVCSILASLLRNLRGQQRTRLLNKFTENDSEKVDRLMELHFKYLGAMQVADKKIEGEKHDMVRRGEIIDNDTEEEFYLRRLDAGLFVLQHICYIMAEICNANVPQIRQRVHQILNMRGSSIKIVRHIIKEYAENIGDGRSPEFRENEQKRILGLLENF
notes: as for B2
B4: CTNNBL1^Q238A/E278A/E282A (domain or fragment, human, UniProt Q8WYA6 77-563, looked up)
chain: LDESSVKKMILTFEKRSYKNQELRIKFPDNPEKFMESELDLNDIIQEMHVVATMPDLYHLLVELNAVQSLLGLLGHDNTDVSIAVVDLLQELTDIDTLHESEEGAEVLIDALVDGQVVALLVQNLERLDESVKEEADGVHNTLAIVENMAEFRPEMCTEGAAQGLLQWLLKRLKAKMPFDANKLYCSEVLAILLQDNDENRALLGALDGIDVLLQQLSVFKRHNPSTAEEQEMMENLFDSLCSCLMLSSNRERFLKGEGLQLMNLMLREKKISRSSALKVLDHAMIGPEGTDNCHKFVDILGLRTIFPLFMKSPRKIKKVGTTEKEHEEHVCSILASLLRNLRGQQRTRLLNKFTENDSEKVDRLMELHFKYLGAMQVADKKIEGEKHDMVRRGEIIDNDTEEEFYLRRLDAGLFVLQHICYIMAEICNANVPQIRQRVHQILNMRGSSIKIVRHIIKEYAENIGDGRSPEFRENEQKRILGLLENF
notes: human CTNNBL1, residues 77-563, triple-point mutant (ARM III and ARM IV); also called Arm III and Arm IV mutant; source: E. coli, purified as wild-type CTNNBL1; not shown: 6xHis, N-terminal, cleaved; VHb (bacterial hemoglobin), N-terminal, cleaved
B5: CTNNBL1^G148R (domain or fragment, human, UniProt Q8WYA6 77-563, looked up)
chain: LDESSVKKMILTFEKRSYKNQELRIKFPDNPEKFMESELDLNDIIQEMHVVATMPDLYHLLVELNAVQSLLRLLGHDNTDVSIAVVDLLQELTDIDTLHESEEGAEVLIDALVDGQVVALLVQNLERLDESVKEEADGVHNTLAIVENMAEFRPEMCTEGAQQGLLQWLLKRLKAKMPFDANKLYCSEVLAILLQDNDENRELLGELDGIDVLLQQLSVFKRHNPSTAEEQEMMENLFDSLCSCLMLSSNRERFLKGEGLQLMNLMLREKKISRSSALKVLDHAMIGPEGTDNCHKFVDILGLRTIFPLFMKSPRKIKKVGTTEKEHEEHVCSILASLLRNLRGQQRTRLLNKFTENDSEKVDRLMELHFKYLGAMQVADKKIEGEKHDMVRRGEIIDNDTEEEFYLRRLDAGLFVLQHICYIMAEICNANVPQIRQRVHQILNMRGSSIKIVRHIIKEYAENIGDGRSPEFRENEQKRILGLLENF
notes: as for B2

Each binder was assayed against T1, CTNNBL1 (residues 77-563), wild type (assay: pull-down; 6xHis-tagged CDC5L truncations mixed with untagged CTNNBL1 in 50 mM Tris-HCl pH 8.0, 300 mM NaCl, dialysed against 50 mM Tris-HCl without NaCl at 4 °C overnight, loaded on Ni-NTA resin, washed with 10 mM imidazole, eluted with 300 mM imidazole, SDS-PAGE). Settings: both partners purified.
B1: binds.

Target: the molecule itself
Assay: SEC; Superdex 200 10/300, 500 μl of 2 mg/ml protein, 0.5 ml/min, 40 mM Tris-HCl pH 8.0, 150 mM NaCl; molecular weight from calibration standards
Settings: not given
In the case of B2, the “stoichiometry N” value is reported as 2. For B3, the “stoichiometry N” value was 2. B4 was tested, and the “stoichiometry N” value was 2. In the case of B5, the “stoichiometry N” value is reported as 2.
